The values that follow come from article PMC2935576 (The Journal of Cell Biology, 2010).

One test has as its target Spc105p 800-829 (UniProt P53148). Briefly: ITC, Spc105p peptide 1 with MIND complex. Particulars: reference: untreated MIND complex; sites S250.
For test [1], the target named is recombinant S. cerevisiae NDC80 complex (Ndc80p, Nuf2p, Spc24p, Spc25p), His-tagged on Ndc80p (S. cerevisiae, UniProt P40460;P33895;Q04477;P40014). Nature of the test: ITC.
For test [2], the target named is T1, Dsn1p residues 103–412 (trypsin-resistant fragment) (S. cerevisiae, UniProt P40568 103-412).
T1 sequence: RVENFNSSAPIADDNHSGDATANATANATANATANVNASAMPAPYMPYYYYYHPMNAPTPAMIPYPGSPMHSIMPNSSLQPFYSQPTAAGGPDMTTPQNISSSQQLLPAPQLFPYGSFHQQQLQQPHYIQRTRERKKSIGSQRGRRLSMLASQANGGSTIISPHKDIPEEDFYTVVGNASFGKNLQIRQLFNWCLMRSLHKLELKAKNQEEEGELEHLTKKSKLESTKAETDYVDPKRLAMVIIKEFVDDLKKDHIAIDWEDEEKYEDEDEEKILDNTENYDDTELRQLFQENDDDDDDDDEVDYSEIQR
Briefly: limited proteolysis.

Test [3] has as its target T2, Mtw1p residues 1–220 (trypsin-resistant fragment) (S. cerevisiae, UniProt P39731 1-220).
T2 sequence: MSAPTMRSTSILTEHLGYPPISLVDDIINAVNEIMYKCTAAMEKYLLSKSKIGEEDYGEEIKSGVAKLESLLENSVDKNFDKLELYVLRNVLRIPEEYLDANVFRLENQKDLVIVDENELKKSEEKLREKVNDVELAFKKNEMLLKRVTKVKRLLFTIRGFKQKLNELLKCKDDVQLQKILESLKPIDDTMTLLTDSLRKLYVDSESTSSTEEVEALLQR
Briefly: limited proteolysis.

The target in the next test is T3, Dsn1p–Nsl1p heterodimer (S. cerevisiae, UniProt P40568;Q12143).
T3 sequence 1: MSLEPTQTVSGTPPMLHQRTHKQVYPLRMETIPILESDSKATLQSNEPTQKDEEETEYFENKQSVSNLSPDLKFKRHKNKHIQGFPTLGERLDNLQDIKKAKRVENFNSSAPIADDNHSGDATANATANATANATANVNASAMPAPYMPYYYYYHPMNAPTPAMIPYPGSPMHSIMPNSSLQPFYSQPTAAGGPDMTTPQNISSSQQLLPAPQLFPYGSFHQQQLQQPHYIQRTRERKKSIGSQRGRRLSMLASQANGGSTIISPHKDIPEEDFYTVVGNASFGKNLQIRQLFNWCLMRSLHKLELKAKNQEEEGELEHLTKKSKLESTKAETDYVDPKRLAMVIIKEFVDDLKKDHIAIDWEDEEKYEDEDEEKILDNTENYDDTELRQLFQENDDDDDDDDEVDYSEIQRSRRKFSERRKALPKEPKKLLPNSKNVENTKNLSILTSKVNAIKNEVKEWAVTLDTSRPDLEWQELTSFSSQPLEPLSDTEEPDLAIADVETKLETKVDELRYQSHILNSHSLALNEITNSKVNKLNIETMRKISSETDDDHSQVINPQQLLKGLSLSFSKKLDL
T3 sequence 2: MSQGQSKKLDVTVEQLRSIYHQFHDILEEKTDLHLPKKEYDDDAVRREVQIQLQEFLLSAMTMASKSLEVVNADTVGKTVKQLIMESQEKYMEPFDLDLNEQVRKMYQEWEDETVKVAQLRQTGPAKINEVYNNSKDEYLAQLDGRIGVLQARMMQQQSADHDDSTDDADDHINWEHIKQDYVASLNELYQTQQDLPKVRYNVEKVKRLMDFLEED
Nature of the test: AUC.

Chain of recombinant S. cerevisiae NDC80 complex (Ndc80p, Nuf2p, Spc24p, Spc25p), His-tagged on Ndc80p (P40460 whole entry, chain 1 of 4, the tested form may be a part): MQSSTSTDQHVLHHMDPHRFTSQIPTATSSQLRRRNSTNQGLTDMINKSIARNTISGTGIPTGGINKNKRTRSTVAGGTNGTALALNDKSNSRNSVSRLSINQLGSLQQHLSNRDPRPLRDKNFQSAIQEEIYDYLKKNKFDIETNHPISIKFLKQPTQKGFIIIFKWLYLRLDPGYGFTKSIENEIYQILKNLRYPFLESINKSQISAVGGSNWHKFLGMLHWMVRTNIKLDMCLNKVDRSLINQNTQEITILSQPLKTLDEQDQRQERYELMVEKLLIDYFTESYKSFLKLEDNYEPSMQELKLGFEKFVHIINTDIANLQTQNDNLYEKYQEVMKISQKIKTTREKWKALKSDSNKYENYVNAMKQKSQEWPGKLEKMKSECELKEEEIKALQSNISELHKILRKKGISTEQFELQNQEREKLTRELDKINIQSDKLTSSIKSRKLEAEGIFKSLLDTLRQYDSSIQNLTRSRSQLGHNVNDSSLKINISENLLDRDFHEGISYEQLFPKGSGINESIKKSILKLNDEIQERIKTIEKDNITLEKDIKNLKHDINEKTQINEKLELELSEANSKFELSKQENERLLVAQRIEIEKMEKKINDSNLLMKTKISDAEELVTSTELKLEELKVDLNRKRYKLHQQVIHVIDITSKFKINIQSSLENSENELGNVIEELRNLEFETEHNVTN
Chain of recombinant S. cerevisiae NDC80 complex (Ndc80p, Nuf2p, Spc24p, Spc25p), His-tagged on Ndc80p (P33895 whole entry, chain 2 of 4, the tested form may be a part): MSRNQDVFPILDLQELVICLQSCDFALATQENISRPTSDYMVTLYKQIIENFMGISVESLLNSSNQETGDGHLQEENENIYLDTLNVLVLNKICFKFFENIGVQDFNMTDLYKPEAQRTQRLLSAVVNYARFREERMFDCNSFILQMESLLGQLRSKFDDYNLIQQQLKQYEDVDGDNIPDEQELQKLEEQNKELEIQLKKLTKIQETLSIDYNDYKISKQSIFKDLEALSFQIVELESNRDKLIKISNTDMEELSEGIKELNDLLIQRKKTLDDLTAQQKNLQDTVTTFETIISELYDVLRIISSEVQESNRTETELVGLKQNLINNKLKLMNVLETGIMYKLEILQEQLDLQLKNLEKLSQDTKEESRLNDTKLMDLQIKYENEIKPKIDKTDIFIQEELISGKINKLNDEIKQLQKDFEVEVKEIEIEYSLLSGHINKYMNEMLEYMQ
Chain of recombinant S. cerevisiae NDC80 complex (Ndc80p, Nuf2p, Spc24p, Spc25p), His-tagged on Ndc80p (Q04477 whole entry, chain 3 of 4, the tested form may be a part): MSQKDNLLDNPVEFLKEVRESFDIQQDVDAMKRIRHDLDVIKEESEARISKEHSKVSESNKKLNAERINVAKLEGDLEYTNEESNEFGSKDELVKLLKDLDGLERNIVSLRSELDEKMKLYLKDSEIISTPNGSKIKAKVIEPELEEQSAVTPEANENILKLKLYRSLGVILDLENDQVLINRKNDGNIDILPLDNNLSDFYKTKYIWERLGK
Chain of recombinant S. cerevisiae NDC80 complex (Ndc80p, Nuf2p, Spc24p, Spc25p), His-tagged on Ndc80p (P40014 whole entry, chain 4 of 4, the tested form may be a part): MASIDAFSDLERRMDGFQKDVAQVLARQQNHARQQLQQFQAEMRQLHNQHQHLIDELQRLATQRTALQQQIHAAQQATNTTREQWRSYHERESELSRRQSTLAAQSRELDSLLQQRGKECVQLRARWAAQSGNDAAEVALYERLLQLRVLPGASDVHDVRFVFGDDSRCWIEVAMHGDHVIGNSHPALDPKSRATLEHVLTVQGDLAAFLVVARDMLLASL

For “Dsn1p (from UniProt P40568) Ipl1p-phosphorylated MIND complex (Dsn1p pS250)”, the “binding against the reference” value in the test with Spc105p 800-829 is “same”.

B1: MIND complex phosphorylated on Dsn1p Ser250 by Ipl1p (complex)
chain 1: MSLEPTQTVSGTPPMLHQRTHKQVYPLRMETIPILESDSKATLQSNEPTQKDEEETEYFENKQSVSNLSPDLKFKRHKNKHIQGFPTLGERLDNLQDIKKAKRVENFNSSAPIADDNHSGDATANATANATANATANVNASAMPAPYMPYYYYYHPMNAPTPAMIPYPGSPMHSIMPNSSLQPFYSQPTAAGGPDMTTPQNISSSQQLLPAPQLFPYGSFHQQQLQQPHYIQRTRERKKSIGSQRGRRLSMLASQANGGSTIISPHKDIPEEDFYTVVGNASFGKNLQIRQLFNWCLMRSLHKLELKAKNQEEEGELEHLTKKSKLESTKAETDYVDPKRLAMVIIKEFVDDLKKDHIAIDWEDEEKYEDEDEEKILDNTENYDDTELRQLFQENDDDDDDDDEVDYSEIQRSRRKFSERRKALPKEPKKLLPNSKNVENTKNLSILTSKVNAIKNEVKEWAVTLDTSRPDLEWQELTSFSSQPLEPLSDTEEPDLAIADVETKLETKVDELRYQSHILNSHSLALNEITNSKVNKLNIETMRKISSETDDDHSQVINPQQLLKGLSLSFSKKLDL
chain 2: MSAPTMRSTSILTEHLGYPPISLVDDIINAVNEIMYKCTAAMEKYLLSKSKIGEEDYGEEIKSGVAKLESLLENSVDKNFDKLELYVLRNVLRIPEEYLDANVFRLENQKDLVIVDENELKKSEEKLREKVNDVELAFKKNEMLLKRVTKVKRLLFTIRGFKQKLNELLKCKDDVQLQKILESLKPIDDTMTLLTDSLRKLYVDSESTSSTEEVEALLQRLKTNGKQNNKDFRTRYIDIRTNNVLRKLGLLGDKEDEKQSAKPDARTQAGDIVSIDIEEPQLDLLDDVL
chain 3: MVNSHGIRYIRLKQVFNRALDQSISKLQSWDKVSSCFPQYVNSKQGAINVANCQRQLTEFWTELCQREFKEIMEERNVEQKLNELDELILEAKERYTDRDQDEVNKGPAIDELSSKELVECHLYSQRMHAIHEIDERLAKVNEMNDQLAQELKDLETQVEVEKNEIGKMYDEYLGSHTDQPANVLLVQSLNDMVLELKENY
chain 4: MSQGQSKKLDVTVEQLRSIYHQFHDILEEKTDLHLPKKEYDDDAVRREVQIQLQEFLLSAMTMASKSLEVVNADTVGKTVKQLIMESQEKYMEPFDLDLNEQVRKMYQEWEDETVKVAQLRQTGPAKINEVYNNSKDEYLAQLDGRIGVLQARMMQQQSADHDDSTDDADDHINWEHIKQDYVASLNELYQTQQDLPKVRYNVEKVKRLMDFLEED
modifications: phosphoserine at 250
For B1, in test [1], the binding result was “binds”.

B2: Nsl1p (natural protein)
chain: MSQGQSKKLDVTVEQLRSIYHQFHDILEEKTDLHLPKKEYDDDAVRREVQIQLQEFLLSAMTMASKSLEVVNADTVGKTVKQLIMESQEKYMEPFDLDLNEQVRKMYQEWEDETVKVAQLRQTGPAKINEVYNNSKDEYLAQLDGRIGVLQARMMQQQSADHDDSTDDADDHINWEHIKQDYVASLNELYQTQQDLPKVRYNVEKVKRLMDFLEED
Take B2: in test [2], the binding result is “binds”.

B3: Nnf1p (natural protein)
chain: MVNSHGIRYIRLKQVFNRALDQSISKLQSWDKVSSCFPQYVNSKQGAINVANCQRQLTEFWTELCQREFKEIMEERNVEQKLNELDELILEAKERYTDRDQDEVNKGPAIDELSSKELVECHLYSQRMHAIHEIDERLAKVNEMNDQLAQELKDLETQVEVEKNEIGKMYDEYLGSHTDQPANVLLVQSLNDMVLELKENY
In the case of B3, in test [3], the binding result is recorded as “binds”.

B4: Mtw1p–Nnf1p heterodimer (complex)
chain 1: MSAPTMRSTSILTEHLGYPPISLVDDIINAVNEIMYKCTAAMEKYLLSKSKIGEEDYGEEIKSGVAKLESLLENSVDKNFDKLELYVLRNVLRIPEEYLDANVFRLENQKDLVIVDENELKKSEEKLREKVNDVELAFKKNEMLLKRVTKVKRLLFTIRGFKQKLNELLKCKDDVQLQKILESLKPIDDTMTLLTDSLRKLYVDSESTSSTEEVEALLQRLKTNGKQNNKDFRTRYIDIRTNNVLRKLGLLGDKEDEKQSAKPDARTQAGDIVSIDIEEPQLDLLDDVL
chain 2: MVNSHGIRYIRLKQVFNRALDQSISKLQSWDKVSSCFPQYVNSKQGAINVANCQRQLTEFWTELCQREFKEIMEERNVEQKLNELDELILEAKERYTDRDQDEVNKGPAIDELSSKELVECHLYSQRMHAIHEIDERLAKVNEMNDQLAQELKDLETQVEVEKNEIGKMYDEYLGSHTDQPANVLLVQSLNDMVLELKENY
In general, stoichiometry N refers to the number of molecules, sites or subunits per partner or assembly. With B4, in the test with Dsn1p–Nsl1p heterodimer, the “stoichiometry N” value is 1.
